Laboratory results taken from patent publication US20220177558A1 (INSERM INSTITUT NATIONAL DE LA SANT ET DE LA RECHERCHE M …, published 2022).
Where no end group is shown, it is not given here.

Biological target: T1, Ac-Met11-Tau peptide: {N-alpha-acetyl}MEDHAGTYGLG (human)
T1 construct: Synthetic peptide coated on the ELISA plate; The C-terminal cysteine was added only for KLH conjugation of the immunogen; also called N-alpha-acetyl-Met11-Tau peptide; AcMet11-peptide
T1 peptide: Ac-MEDHAGTYGLG
Experiment: indirect ELISA on coated peptide, positive control

binding result: binds
B1: 2H2D11 antibody (antibody, IgG2a, V domains shown)
VH: EVRLVESGGGLVQPGGSLRLSCATSGFTFTDYYLSWVRQPPGKAFEWLGFIRNRADGYTTNYSASVKGRFTISRDNSQSILYLQMNTLRVEDSATYYCARDNDHYAMDYWGQGTSVTVSS
VL: DVVMTQTPLSLSVTIGQPASISCKSSQSLLYSNGKTYLNWLQQRPGQAPKHLMYQVSKLDPGIPDRFSGSGSETDFILKISRVEAEDLGIYYCLQGTYYPYTFGGGTKLEIK
notes: also called Mab 2H2D11; monoclonal antibody directed against AcMet11-Tau
